Results taken from paper PMC9672922 (Cellular and Molecular Gastroenterology and Hepatology, 2022).

Tests used:
Experiment in all cases: peptide or protein array
[1] = target: glycogen synthase kinase 3β (GSK3β) on the ProtoArray Human Protein Microarray (human, UniProt P49841 1-420)
[2] = target: casein kinase 1ε (CK1ε) on the ProtoArray Human Protein Microarray (human, UniProt P49674 1-416)
[3] = target: carbonic anhydrase 1 on the ProtoArray Human Protein Microarray (human, UniProt P00915 1-261)
Sequence of carbonic anhydrase 1 on the ProtoArray Human Protein Microarray (P00915 whole entry): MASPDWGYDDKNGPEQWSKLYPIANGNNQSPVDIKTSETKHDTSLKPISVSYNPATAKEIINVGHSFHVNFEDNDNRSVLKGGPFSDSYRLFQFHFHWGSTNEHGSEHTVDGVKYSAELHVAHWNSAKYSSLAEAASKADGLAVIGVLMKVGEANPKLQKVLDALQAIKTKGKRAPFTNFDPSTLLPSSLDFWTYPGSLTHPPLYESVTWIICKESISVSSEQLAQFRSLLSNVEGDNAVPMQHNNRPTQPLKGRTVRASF

[4] = target: mitogen-activated protein kinase kinase 2 (MEK2) on the ProtoArray Human Protein Microarray (human, UniProt P36507 1-400)
[5] = target: T1, chromosome 7 open reading frame 50 on the ProtoArray Human Protein Microarray (human, UniProt Q9BRJ6 1-194)
T1 sequence (looked up): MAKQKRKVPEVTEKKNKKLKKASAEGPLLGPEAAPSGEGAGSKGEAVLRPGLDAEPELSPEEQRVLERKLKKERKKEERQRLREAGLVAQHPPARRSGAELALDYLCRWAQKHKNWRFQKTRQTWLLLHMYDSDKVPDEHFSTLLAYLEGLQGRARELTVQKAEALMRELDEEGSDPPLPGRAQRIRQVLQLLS

Measured: binding result

Sequence of casein kinase 1ε (CK1ε) on the ProtoArray Human Protein Microarray (P49674 whole entry): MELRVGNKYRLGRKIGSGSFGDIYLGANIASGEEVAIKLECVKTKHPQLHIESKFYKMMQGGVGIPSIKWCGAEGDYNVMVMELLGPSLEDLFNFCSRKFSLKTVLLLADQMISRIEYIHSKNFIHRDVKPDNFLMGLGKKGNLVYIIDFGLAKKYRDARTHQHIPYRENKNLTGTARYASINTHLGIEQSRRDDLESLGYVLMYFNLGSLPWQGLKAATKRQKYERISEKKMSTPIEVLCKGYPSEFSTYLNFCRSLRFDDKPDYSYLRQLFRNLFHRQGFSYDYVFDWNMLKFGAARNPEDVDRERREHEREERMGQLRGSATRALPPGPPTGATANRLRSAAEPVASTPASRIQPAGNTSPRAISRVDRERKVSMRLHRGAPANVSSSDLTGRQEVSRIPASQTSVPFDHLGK
Sequence of glycogen synthase kinase 3β (GSK3β) on the ProtoArray Human Protein Microarray (P49841 whole entry): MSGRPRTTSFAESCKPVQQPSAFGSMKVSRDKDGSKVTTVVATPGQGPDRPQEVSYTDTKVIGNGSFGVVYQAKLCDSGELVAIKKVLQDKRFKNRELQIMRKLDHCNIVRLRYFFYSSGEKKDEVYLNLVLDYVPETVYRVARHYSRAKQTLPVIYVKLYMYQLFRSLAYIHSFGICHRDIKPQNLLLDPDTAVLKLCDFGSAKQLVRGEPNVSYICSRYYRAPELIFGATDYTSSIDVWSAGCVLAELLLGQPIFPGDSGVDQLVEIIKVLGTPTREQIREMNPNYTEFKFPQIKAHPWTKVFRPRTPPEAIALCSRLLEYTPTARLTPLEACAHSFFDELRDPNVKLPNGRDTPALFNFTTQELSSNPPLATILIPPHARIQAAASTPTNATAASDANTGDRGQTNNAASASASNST

B1: V5-SRGY (RBMY amino acid residues 227–374, 4 repeated SRGY box domains) (domain or fragment, human, UniProt P0DJD3-1 227-374, looked up)
chain: ETRDYAPPSRGYAYRDNGHSNRDEHSSRGYRNHRSSRETRDYAPPSRGHAYRDYGHSRRDESYSRGYRNRRSSRETREYAPPSRGHGYRDYGHSRRHESYSRGYRNHPSSRETRDYAPPHRDYAYRDYGHSSWDEHSSRGYSYHDGYG
binds: all assays above
